Assay [1] deals with biotinylated MTC28 (Rv0040c) polypeptide (M. tuberculosis H37Rv).
For assay [2], the target named is biotinylated Ag85B (Rv1886c) polypeptide (M. tuberculosis H37Rv) (UniProt A5U3Q3).
For assay [3], the target named is biotinylated Ag85A (Rv3804c) polypeptide (M. tuberculosis H37Rv).
Assay [4] concerns the target biotinylated MPT63 (Rv1926c) polypeptide (M. tuberculosis H37Rv).
For assay [5], the target named is biotinylated MPT64 (Rv1980c) polypeptide (M. tuberculosis H37Rv).

Chain of streptavidin (P22629 37-163 limits assumed): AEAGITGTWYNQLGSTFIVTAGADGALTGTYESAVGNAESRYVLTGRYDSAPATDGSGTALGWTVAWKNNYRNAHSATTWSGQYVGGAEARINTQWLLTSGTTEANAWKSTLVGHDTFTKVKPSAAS

For the substance “streptavidin (from UniProt P22629 37-163)”, the Extent of biotinylation (share of protein adsorbed on streptavidin beads) worked out at 99.8% in assay [1]; 99.9% in assay [2]; 99.9% in assay [3]; 99.9% in assay [4]; 99.8% in assay [5]. Also, the Fold reduction in protein reactivity after adsorption in assay [1] was found to be 500 fold; in assay [2], 1000 fold; in assay [3], 4000 fold; in assay [4], 1000 fold; in assay [5], 500 fold.
